Assay in all cases: cell-based or functional assay
Assay [1] addresses HIV-1 Env of isolate 98IN022 (clade C) (HIV-1 isolate 98IN022).
In assay [2] the target is HIV-1 Env of pseudovirus MGRM-F1-006 (HIV-1).
The target of assay [3] is HIV-1 Env of isolate VLGCA1 (clade A pseudovirus) (HIV-1).
Assay [4] has as its target HIV-1 Env of isolate MGRM-D-019 (clade D pseudovirus) (HIV-1).
Assay [5] addresses HIV-1 Env of isolate MGRM-Chronic-B-008, clade B, on pseudovirus (HIV-1).
The target in assay [6] is HIV-1 Env of isolate SC422661.8 (Acute), clade B, on pseudovirus (HIV-1).
For assay [7], the target named is HIV-1 92RW020 Env (pseudovirus, clade A) (HIV-1).
In assay [8] the target is HIV-1 Env of pseudovirus MGRM-AE-002 (clade CRF01_AE) (HIV-1).
In assay [9] the target is HIV-1 Env of isolate MGRM-D-028 (clade D pseudovirus) (HIV-1).
Assay [10] deals with HIV-1 Env of isolate 98CN009 (HIV-1).
The target of assay [11] is HIV-1 envelope glycoprotein (Env) of isolate 92RW026, clade A (HIV-1).
The target of assay [12] is HIV-1 Env of isolate MGRM-D-005 (clade D pseudovirus) (HIV-1).
Assay [13] has as its target HIV-1 Env of pseudovirus MGRM-F1-018 (HIV-1).
Assay [14] addresses HIV-1 IAVI-C3 envelope glycoprotein (Env) on pseudovirus (HIV-1).
Assay [15] concerns the target aMLV envelope (negative control pseudovirus).
Assay [16] concerns the target HIV-1 Env of isolate MGRM-AE-001 (subtype AE) (HIV-1).
In assay [17] the target is HIV-1 Env of isolate 92TH021 (subtype AE) (HIV-1).
For assay [18], the target named is HIV-1 Env of isolate MGRM-AE-002 (subtype AE) (HIV-1).
Assay [19] concerns the target HIV-1 APV13 Env (pseudovirus) (HIV-1).
In assay [20] the target is HIV-1 Env of isolate MGRM-G-025 (HIV-1).
Assay [21] concerns the target HIV-1 Env of isolate CMU02 (subtype AE) (HIV-1).
Assay [22] concerns the target HIV-1 Env of isolate 92WR021 (HIV-1).
Assay [23] deals with HIV-1 Env of isolate MGRM-A-008 (subtype A) (HIV-1).
Assay [24] concerns the target HIV-1 Env of isolate MGRM-AG-013 (subtype AG) (HIV-1).
Assay [25] has as its target HIV-1 Env of isolate 92BR020 (HIV-1).
Assay [26] has as its target HIV-1 Env of isolate 92WR026 (HIV-1).
Assay [27] has as its target HIV-1 Env of isolate MGRM-AG-003 (subtype AG) (HIV-1).
In assay [28] the target is HIV-1 Env of isolate MG RM-D-020 (HIV-1).
The target of assay [29] is HIV-1 Env of isolate VLGCB3 (subtype B) (HIV-1).
For assay [30], the target named is HIV-1 Env of isolate APV-6 (HIV-1).
The target in assay [31] is HIV-1 Env of isolate MGRM-C-026 (pseudovirus) (HIV-1).
For assay [32], the target named is HIV-1 Env of isolate MGRM-Chronic-B-017 (subtype B) (HIV-1).
The target of assay [33] is HIV-1 Env of isolate MGRM-Chronic-B-011 (subtype B) (HIV-1).
Assay [34] concerns the target HIV-1 Env of isolate 92WR020 (HIV-1).
Assay [35] has as its target HIV-1 Env of isolate MGRM-F1-014 (HIV-1).
The target in assay [36] is HIV-1 Env of isolate MGRM-F1-023 (HIV-1).

4993_K13 (PGT-141) (antibody), sequence (VH): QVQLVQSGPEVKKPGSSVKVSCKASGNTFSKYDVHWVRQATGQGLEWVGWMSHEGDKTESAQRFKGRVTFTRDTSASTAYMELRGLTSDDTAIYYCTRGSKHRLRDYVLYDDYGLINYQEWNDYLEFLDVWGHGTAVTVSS
4993_K13 (PGT-141) (antibody), sequence (VL): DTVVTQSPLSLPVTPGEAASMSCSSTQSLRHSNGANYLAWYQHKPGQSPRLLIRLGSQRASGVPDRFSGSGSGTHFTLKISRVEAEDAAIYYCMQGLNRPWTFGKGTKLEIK
5345_I01 (PGT-137) (antibody), sequence (VH): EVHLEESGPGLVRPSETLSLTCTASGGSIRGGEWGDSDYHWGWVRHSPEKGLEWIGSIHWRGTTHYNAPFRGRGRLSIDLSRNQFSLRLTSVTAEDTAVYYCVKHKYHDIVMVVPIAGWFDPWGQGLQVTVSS
5345_I01 (PGT-137) (antibody), sequence (VL): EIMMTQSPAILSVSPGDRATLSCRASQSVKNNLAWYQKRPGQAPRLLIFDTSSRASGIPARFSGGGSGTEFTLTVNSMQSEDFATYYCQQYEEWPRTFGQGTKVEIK
4970_K22 (PGT-144) (antibody), sequence (VH): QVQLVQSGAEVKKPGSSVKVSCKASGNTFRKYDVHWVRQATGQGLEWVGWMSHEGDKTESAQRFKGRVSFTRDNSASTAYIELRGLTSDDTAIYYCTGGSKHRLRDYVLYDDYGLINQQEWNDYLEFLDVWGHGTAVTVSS
4970_K22 (PGT-144) (antibody), sequence (VL): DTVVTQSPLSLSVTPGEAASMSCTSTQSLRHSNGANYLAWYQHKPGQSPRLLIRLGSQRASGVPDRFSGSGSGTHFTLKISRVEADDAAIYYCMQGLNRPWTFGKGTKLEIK
4995_E20 (PGT-142) (antibody), sequence (VH): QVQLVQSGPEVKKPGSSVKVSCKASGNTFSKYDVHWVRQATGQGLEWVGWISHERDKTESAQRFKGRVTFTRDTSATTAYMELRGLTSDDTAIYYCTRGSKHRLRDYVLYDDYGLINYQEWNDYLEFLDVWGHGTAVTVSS
4980_N08 (PGT-143) (antibody), sequence (VH): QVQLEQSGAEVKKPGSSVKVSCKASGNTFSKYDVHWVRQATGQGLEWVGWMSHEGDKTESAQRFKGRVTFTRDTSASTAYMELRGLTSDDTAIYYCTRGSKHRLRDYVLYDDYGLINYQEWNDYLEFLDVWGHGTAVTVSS
4980_N08 (PGT-143) (antibody), sequence (VL): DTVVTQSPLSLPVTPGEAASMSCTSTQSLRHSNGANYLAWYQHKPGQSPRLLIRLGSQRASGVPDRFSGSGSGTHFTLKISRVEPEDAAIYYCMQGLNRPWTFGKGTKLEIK

For orientation: IC50 means the concentration that gives 50% inhibition. 1496_C09 (PG9) (TCN-109) (antibody): the IC50 (µg/ml), pseudovirus neutralization amounted to 0.006 µg/mL in assay [1]; 1.45 µg/mL in assay [2]; 0.07 µg/mL in assay [3]; 0.03 µg/mL in assay [4]; 6.66 µg/mL in assay [5]; 0.79 µg/mL in assay [6]. Besides, the IC50 (µg/ml), pseudovirus neutralization in assay [9] is 4.39 µg/mL; in assay [11] it was 0.27 µg/mL; in assay [12] it was 0.59 µg/mL; in assay [13] it was 0.03 µg/mL. In assay [7], this substance came in with an IC50 neutralization of 0.161 µg/mL. For the same substance, the half-maximal inhibitory concentration (IC50) in assay [8] came to 0.04 µg/mL; in [10], 0.371 µg/mL. In assay [14], this substance came in with an IC50, pseudovirus neutralization of 12.9 µg/mL.
For the substance 4970_K22 (PGT-144) (antibody), the IC50 (neutralizing activity, pseudovirus) in [15] and in assay [19] was over 10 µg/mL each time. For the same substance, the IC50 (µg/mL), pseudovirus neutralization was over 50 µg/mL in assay [15]; over 50 µg/mL in assay [16]; 0.052 µg/mL in [17]; over 50 µg/mL in [18]; over 50 µg/mL in [20]; over 50 µg/mL in assay [21].
In the case of 4980_N08 (PGT-143) (antibody), the IC50 (neutralizing activity, pseudovirus) in assay [15] and in [19] was over 10 µg/mL each time. In addition, the IC50 (µg/mL), pseudovirus neutralization is over 50 µg/mL in assay [15]; over 50 µg/mL in assay [16]; 0.003 µg/mL in [17]; over 50 µg/mL in [18]; over 50 µg/mL in assay [20]; over 50 µg/mL in assay [21].
Turning to 4993_K13 (PGT-141) (antibody), the IC50 (neutralizing activity, pseudovirus) in assay [15] and in [19] was over 10 µg/mL each time. Also, the IC50 (µg/mL), pseudovirus neutralization in assay [15] was over 50 µg/mL; in assay [16], over 50 µg/mL; in assay [17], 0.001 µg/mL; in assay [18], over 50 µg/mL; in assay [20] it was over 50 µg/mL; in [21] it was over 50 µg/mL.
For 4995_E20 (PGT-142) (antibody), the IC50 (neutralizing activity, pseudovirus) in [15] and in assay [19] was over 10 µg/mL in each case. In addition, the IC50 (µg/mL), pseudovirus neutralization in assay [15] is over 50 µg/mL; in [16], over 50 µg/mL; in assay [17], 0.002 µg/mL; in [18], over 50 µg/mL; in assay [20], over 50 µg/mL; in [21] it was over 50 µg/mL.
In the case of 5114_A19 (PGT-128) (antibody), the results for the IC50 in assay [22], in [26] and in assay [34] were 0.005 µg/mL, 0.01 µg/mL and 0.005 µg/mL, respectively. The IC50 (µg/mL), pseudovirus neutralization in assay [16] is 0.069 µg/mL; in assay [23] it was over 50 µg/mL; in assay [24], 0.004 µg/mL; in assay [27], 34.8 µg/mL; in [28], 0.011 µg/mL; in [10] it was 0.025 µg/mL. The results for the IC50 (µg/mL), pseudovirus neutralization in [17], in assay [18] and in assay [21] were 0.01 µg/mL, 0.522 µg/mL and over 50 µg/mL, respectively. In addition, the figures for the neutralization IC50 in assay [25] and in assay [30] were 0.009 µg/mL and 0.007 µg/mL, respectively. The IC50 neutralization in assay [29] is 0.012 µg/mL; in [32], over 50 µg/mL; in assay [33], 0.02 µg/mL. This substance also came in with a Polyclonal Transfectant Neutralization Index in assay [31] of 32.2. Besides, the Primary Neutralization Index (B cell culture supernatant) in assay [31] amounted to 17.1.
On to 5136_H01 (PGT-131) (antibody), for which the 50% inhibitory concentration (IC50) in assay [22] came to 0.012 µg/mL; in assay [26], 0.041 µg/mL; in assay [34] it was 0.168 µg/mL. In addition, the IC50 (µg/mL), pseudovirus neutralization was 4.8 µg/mL in assay [16]; over 50 µg/mL in assay [23]; 0.03 µg/mL in [24]; 2.92 µg/mL in assay [27]; over 50 µg/mL in assay [28]; 4.05 µg/mL in assay [10]. The IC50 (µg/mL), pseudovirus neutralization in assay [17] is 0.014 µg/mL; in assay [18], over 50 µg/mL; in [21] it was over 50 µg/mL. The neutralization IC50 in assay [25] was 6.16 µg/mL; in [30], over 50 µg/mL. For the same substance, the IC50 neutralization in [29] was over 50 µg/mL; in assay [32], over 50 µg/mL; in [33] it was 6.47 µg/mL. The same substance yielded a Primary Neutralization Index (B cell culture supernatant) in assay [31] of 1.2.
As for 5345_I01 (PGT-137) (antibody), the half-inhibitory concentration (IC50) is 3.52 µg/mL in assay [22], 0.092 µg/mL in assay [26] and 0.005 µg/mL in assay [34]. Besides, the IC50 (µg/mL), pseudovirus neutralization in assay [16] is over 50 µg/mL; in [23] it was over 50 µg/mL; in assay [24], over 50 µg/mL; in [27] it was over 50 µg/mL; in [28] it was over 50 µg/mL; in assay [10], 5.06 µg/mL. In addition, the IC50 (µg/mL), pseudovirus neutralization in assay [17], in assay [18] and in [21] was over 50 µg/mL each time. Also, the neutralization IC50 is 7.81 µg/mL in [25] and over 50 µg/mL in assay [30]. Further, the IC50 neutralization in assay [29] was 3.36 µg/mL; in assay [32], over 50 µg/mL; in assay [33] it was over 50 µg/mL. This substance returned a Primary Neutralization Index (B cell culture supernatant) in [31] of 11.3.
As for PGV04 (antibody), the IC50 (µg/mL), pseudovirus neutralization is over 50 µg/mL in [15], 0.25 µg/mL in assay [25] and 1.61 µg/mL in assay [20]. This substance had a half-inhibitory concentration (IC50) in assay [10] of 0.0125 µg/mL.
In the case of VRC01 (antibody), the results for the IC50 in assay [35], in [36] and in assay [28] were 0.056 µg/mL, 0.392 µg/mL and 0.192 µg/mL, respectively. The IC50 (µg/mL), pseudovirus neutralization in [15] is over 50 µg/mL; in assay [16], 0.167 µg/mL; in assay [17] it was 0.616 µg/mL; in assay [18], 0.217 µg/mL; in [20], 0.292 µg/mL; in [21], 0.515 µg/mL.
